According to publication PMC2888818:

Target: LetA (UniProt Q8KQL1 1-219)
Test: EMSA

B1: rsmY upstream 35mer (dsDNA)
DNA 1: CTCTTCTTAATTGAGAAATTTCTTACATATTACTGC
DNA 2: GCAGTAATATGTAAGAAATTTCTCAATTAAGAAGAG
- binding result: binds

B2: rsmZ upstream 35mer (dsDNA)
DNA 1: GTAATTGATGTAAGAAATTTCTCAATTCCATAGA
DNA 2: TCTATGGAATTGAGAAATTTCTTACATCAATTAC
- binding result: binds
